# Like-named read-outs stand apart in the source and are kept apart here.
# B1: GFP-HSET (kinesin-14 HSET) (natural protein, UniProt Q9BW19 1-673, looked up)
# chain: MDPQRSPLLEVKGNIELKRPLIKAPSQLPLSGSRLKRRPDQMEDGLEPEKKRTRGLGATTKITTSHPRVPSLTTVPQTQGQTTAQKVSKKTGPRCSTAIATGLKNQKPVPAVPVQKSGTSGVPPMAGGKKPSKRPAWDLKGQLCDLNAELKRCRERTQTLDQENQQLQDQLRDAQQQVKALGTERTTLEGHLAKVQAQAEQGQQELKNLRACVLELEERLSTQEGLVQELQKKQVELQEERRGLMSQLEEKERRLQTSEAALSSSQAEVASLRQETVAQAALLTEREERLHGLEMERRRLHNQLQELKGNIRVFCRVRPVLPGEPTPPPGLLLFPSGPGGPSDPPTRLSLSRSDERRGTLSGAPAPPTRHDFSFDRVFPPGSGQDEVFEEIAMLVQSALDGYPVCIFAYGQTGSGKTFTMEGGPGGDPQLEGLIPRALRHLFSVAQELSGQGWTYSFVASYVEIYNETVRDLLATGTRKGQGGECEIRRAGPGSEELTVTNARYVPVSCEKEVDALLHLARQNRAVARTAQNERSSRSHSVFQLQISGEHSSRGLQCGAPLSLVDLAGSERLDPGLALGPGERERLRETQAINSSLSTLGLVIMALSNKESHVPYRNSKLTYLLQNSLGGSAKMLMFVNISPLEENVSESLNSLRFASKVNQCVIGTAQANRK
# B2: Kif15-N700 (C-terminally truncated Kif15) (domain or fragment, UniProt Q9NS87 1-700, looked up)
# chain: MAPGCKTELRSVTNGQSNQPSNEGDAIKVFVRIRPPAERSGSADGEQNLCLSVLSSTSLRLHSNPEPKTFTFDHVADVDTTQESVFATVAKSIVESCMSGYNGTIFAYGQTGSGKTFTMMGPSESDNFSHNLRGVIPRSFEYLFSLIDREKEKAGAGKSFLCKCSFIEIYNEQIYDLLDSASAGLYLREHIKKGVFVVGAVEQVVTSAAEAYQVLSGGWRNRRVASTSMNRESSRSHAVFTITIESMEKSNEIVNIRTSLLNLVDLAGSERQKDTHAEGMRLKEAGNINRSLSCLGQVITALVDVGNGKQRHVCYRDSKLTFLLRDSLGGNAKTAIIANVHPGSRCFGETLSTLNFAQRAKLIKNKAVVNEDTQGNVSQLQAEVKRLKEQLAELASGQTPPESFLTRDKKKTNYMEYFQEAMLFFKKSEQEKKSLIEKVTQLEDLTLKKEKFIQSNKMIVKFREDQIIRLEKLHKESRGGFLPEEQDRLLSELRNEIQTLREQIEHHPRVAKYAMENHSLREENRRLRLLEPVKRAQEMDAQTIAKLEKAFSEISGMEKSDKNQQGFSPKAQKEPCLFANTEKLKAQLLQIQTELNNSKQEYEEFKELTRKRQLELESELQSLQKANLNLENLLEATKACKRQEVSQLNKIHAETLKIITTPTKAYQLHSRPVPKLSPEMGSFGSLYTQNSSILDNDILN
# B3: GFP-Kif15-FL (full-length Kif15, Kinesin-12) (natural protein, UniProt Q9NS87 1-1388, looked up)
# chain: MAPGCKTELRSVTNGQSNQPSNEGDAIKVFVRIRPPAERSGSADGEQNLCLSVLSSTSLRLHSNPEPKTFTFDHVADVDTTQESVFATVAKSIVESCMSGYNGTIFAYGQTGSGKTFTMMGPSESDNFSHNLRGVIPRSFEYLFSLIDREKEKAGAGKSFLCKCSFIEIYNEQIYDLLDSASAGLYLREHIKKGVFVVGAVEQVVTSAAEAYQVLSGGWRNRRVASTSMNRESSRSHAVFTITIESMEKSNEIVNIRTSLLNLVDLAGSERQKDTHAEGMRLKEAGNINRSLSCLGQVITALVDVGNGKQRHVCYRDSKLTFLLRDSLGGNAKTAIIANVHPGSRCFGETLSTLNFAQRAKLIKNKAVVNEDTQGNVSQLQAEVKRLKEQLAELASGQTPPESFLTRDKKKTNYMEYFQEAMLFFKKSEQEKKSLIEKVTQLEDLTLKKEKFIQSNKMIVKFREDQIIRLEKLHKESRGGFLPEEQDRLLSELRNEIQTLREQIEHHPRVAKYAMENHSLREENRRLRLLEPVKRAQEMDAQTIAKLEKAFSEISGMEKSDKNQQGFSPKAQKEPCLFANTEKLKAQLLQIQTELNNSKQEYEEFKELTRKRQLELESELQSLQKANLNLENLLEATKACKRQEVSQLNKIHAETLKIITTPTKAYQLHSRPVPKLSPEMGSFGSLYTQNSSILDNDILNEPVPPEMNEQAFEAISEELRTVQEQMSALQAKLDEEEHKNLKLQQHVDKLEHHSTQMQELFSSERIDWTKQQEELLSQLNVLEKQLQETQTKNDFLKSEVHDLRVVLHSADKELSSVKLEYSSFKTNQEKEFNKLSERHMHVQLQLDNLRLENEKLLESKACLQDSYDNLQEIMKFEIDQLSRNLQNFKKENETLKSDLNNLMELLEAEKERNNKLSLQFEEDKENSSKEILKVLEAVRQEKQKETAKCEQQMAKVQKLEESLLATEKVISSLEKSRDSDKKVVADLMNQIQELRTSVCEKTETIDTLKQELKDINCKYNSALVDREESRVLIKKQEVDILDLKETLRLRILSEDIERDMLCEDLAHATEQLNMLTEASKKHSGLLQSAQEELTKKEALIQELQHKLNQKKEEVEQKKNEYNFKMRQLEHVMDSAAEDPQSPKTPPHFQTHLAKLLETQEQEIEDGRASKTSLEHLVTKLNEDREVKNAEILRMKEQLREMENLRLESQQLIEKNWLLQGQLDDIKRQKENSDQNHPDNQQLKNEQEESIKERLAKSKIVEEMLKMKADLEEVQSALYNKEMECLRMTDEVERTQTLESKAFQEKEQLRSKLEEMYEERERTSQEMEMLRKQVECLAEENGKLVGHQNLHQKIQYVVRLKKENVRLAEETEKLRAENVFLKEKKRSES
# How the values were obtained:
# [1] = biological target: the molecule itself; assay: negative stain electron microscopy
# [2] = biological target: the molecule itself; assay: SEC
# [3] = biological target: the molecule itself; assay: single-molecule photobleaching steps
# [4] = biological target: microtubules (MTs), individual (UniProt P68363); assay: single-molecule TIRF microscopy
# [5] = biological target: microtubules (MTs), individual (UniProt P68363); assay: single-molecule TIRF microscopy; remark: listed apart in the source
# [6] = biological target: microtubules (MTs), individual (UniProt P68363); assay: single-molecule TIRF microscopy; remark: listed apart in the source
# Sequence of microtubules (MTs), individual (P68363 whole entry, chain 1 of 2): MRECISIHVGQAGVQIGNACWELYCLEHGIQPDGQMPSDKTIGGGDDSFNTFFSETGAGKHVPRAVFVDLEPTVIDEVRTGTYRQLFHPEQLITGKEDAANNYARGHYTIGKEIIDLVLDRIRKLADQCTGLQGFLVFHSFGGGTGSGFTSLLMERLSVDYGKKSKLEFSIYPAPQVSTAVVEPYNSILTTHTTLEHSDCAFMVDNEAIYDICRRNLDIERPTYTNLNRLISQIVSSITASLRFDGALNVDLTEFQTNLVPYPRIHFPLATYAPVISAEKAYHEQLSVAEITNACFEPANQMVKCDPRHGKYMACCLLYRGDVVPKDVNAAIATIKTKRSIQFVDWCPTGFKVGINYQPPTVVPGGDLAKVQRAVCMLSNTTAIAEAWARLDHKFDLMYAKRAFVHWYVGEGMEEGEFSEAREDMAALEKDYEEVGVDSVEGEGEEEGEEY
# Sequence of microtubules (MTs), individual (P07437 whole entry, chain 2 of 2, further chain): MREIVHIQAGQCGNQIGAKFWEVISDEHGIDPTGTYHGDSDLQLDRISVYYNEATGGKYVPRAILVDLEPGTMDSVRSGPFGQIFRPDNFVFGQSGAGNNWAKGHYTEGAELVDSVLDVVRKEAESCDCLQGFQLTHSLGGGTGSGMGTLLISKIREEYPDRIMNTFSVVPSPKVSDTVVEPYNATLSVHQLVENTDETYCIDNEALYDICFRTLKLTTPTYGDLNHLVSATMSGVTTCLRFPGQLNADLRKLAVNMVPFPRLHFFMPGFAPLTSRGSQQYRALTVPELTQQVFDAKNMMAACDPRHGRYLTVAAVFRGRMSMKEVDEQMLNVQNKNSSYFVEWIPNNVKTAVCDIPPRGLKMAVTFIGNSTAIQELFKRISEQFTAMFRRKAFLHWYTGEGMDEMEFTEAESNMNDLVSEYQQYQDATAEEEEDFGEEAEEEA
binder,measurement,setting,value
B1,stoichiometry N,[1],2
B2,stoichiometry N,[2],2
B3,stoichiometry N,[3],2
same,dwell time,[4],1.9 s
same,dwell time,[5],4 s
same,dwell time,[6],12.2 s
